Experimental data as given in publication PMC8632080.

Experiments:
Assay in all cases: ELISA; dose-response: host component coated as in the single-dose assay; increasing concentrations of recombinant protein (0–6 µM LipL21, 0–1.5 µM LipL41) in PBS-BSA, 2 h 37°C; KD from non-linear regression, one site-specific binding (GraphPad Prism 7)
[1] = molecular target: E-cadherin (human recombinant) (human) (UniProt P12830)
[2] = molecular target: collagen IV
[3] = molecular target: collagen type I (rat tail) (rat) (UniProt P02454)
Chain of UniProt P02454 (P02454 152-1207, chain 1 of 2): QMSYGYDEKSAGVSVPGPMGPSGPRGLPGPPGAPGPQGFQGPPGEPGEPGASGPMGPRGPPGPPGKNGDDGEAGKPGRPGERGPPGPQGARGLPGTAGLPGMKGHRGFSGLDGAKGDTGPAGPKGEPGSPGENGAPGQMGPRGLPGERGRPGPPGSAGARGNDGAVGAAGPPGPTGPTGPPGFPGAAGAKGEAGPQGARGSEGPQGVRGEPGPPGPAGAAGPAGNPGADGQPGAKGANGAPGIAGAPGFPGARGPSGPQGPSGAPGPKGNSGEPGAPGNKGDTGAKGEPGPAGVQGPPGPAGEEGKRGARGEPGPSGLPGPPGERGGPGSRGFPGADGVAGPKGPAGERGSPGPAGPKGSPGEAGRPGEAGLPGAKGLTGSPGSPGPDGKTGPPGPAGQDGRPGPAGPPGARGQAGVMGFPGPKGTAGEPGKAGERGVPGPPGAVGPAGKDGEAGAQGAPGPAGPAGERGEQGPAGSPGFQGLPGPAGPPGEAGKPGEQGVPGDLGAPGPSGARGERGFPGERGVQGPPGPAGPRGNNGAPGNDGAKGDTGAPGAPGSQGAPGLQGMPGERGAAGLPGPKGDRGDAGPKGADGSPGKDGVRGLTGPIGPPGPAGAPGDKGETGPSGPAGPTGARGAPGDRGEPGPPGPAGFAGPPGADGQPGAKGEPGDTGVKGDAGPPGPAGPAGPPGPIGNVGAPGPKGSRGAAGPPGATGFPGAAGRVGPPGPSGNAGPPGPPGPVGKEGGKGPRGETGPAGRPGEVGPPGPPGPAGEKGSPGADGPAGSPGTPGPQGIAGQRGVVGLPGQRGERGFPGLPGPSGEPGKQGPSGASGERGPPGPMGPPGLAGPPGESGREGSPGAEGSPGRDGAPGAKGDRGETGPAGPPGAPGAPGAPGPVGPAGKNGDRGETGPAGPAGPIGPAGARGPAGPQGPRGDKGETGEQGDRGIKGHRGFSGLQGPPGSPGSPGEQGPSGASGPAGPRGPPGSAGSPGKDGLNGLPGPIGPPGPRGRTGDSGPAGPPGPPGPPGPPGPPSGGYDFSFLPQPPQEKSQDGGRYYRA
Chain of UniProt P02454 (P02466 86-1125, chain 2 of 2, further chain): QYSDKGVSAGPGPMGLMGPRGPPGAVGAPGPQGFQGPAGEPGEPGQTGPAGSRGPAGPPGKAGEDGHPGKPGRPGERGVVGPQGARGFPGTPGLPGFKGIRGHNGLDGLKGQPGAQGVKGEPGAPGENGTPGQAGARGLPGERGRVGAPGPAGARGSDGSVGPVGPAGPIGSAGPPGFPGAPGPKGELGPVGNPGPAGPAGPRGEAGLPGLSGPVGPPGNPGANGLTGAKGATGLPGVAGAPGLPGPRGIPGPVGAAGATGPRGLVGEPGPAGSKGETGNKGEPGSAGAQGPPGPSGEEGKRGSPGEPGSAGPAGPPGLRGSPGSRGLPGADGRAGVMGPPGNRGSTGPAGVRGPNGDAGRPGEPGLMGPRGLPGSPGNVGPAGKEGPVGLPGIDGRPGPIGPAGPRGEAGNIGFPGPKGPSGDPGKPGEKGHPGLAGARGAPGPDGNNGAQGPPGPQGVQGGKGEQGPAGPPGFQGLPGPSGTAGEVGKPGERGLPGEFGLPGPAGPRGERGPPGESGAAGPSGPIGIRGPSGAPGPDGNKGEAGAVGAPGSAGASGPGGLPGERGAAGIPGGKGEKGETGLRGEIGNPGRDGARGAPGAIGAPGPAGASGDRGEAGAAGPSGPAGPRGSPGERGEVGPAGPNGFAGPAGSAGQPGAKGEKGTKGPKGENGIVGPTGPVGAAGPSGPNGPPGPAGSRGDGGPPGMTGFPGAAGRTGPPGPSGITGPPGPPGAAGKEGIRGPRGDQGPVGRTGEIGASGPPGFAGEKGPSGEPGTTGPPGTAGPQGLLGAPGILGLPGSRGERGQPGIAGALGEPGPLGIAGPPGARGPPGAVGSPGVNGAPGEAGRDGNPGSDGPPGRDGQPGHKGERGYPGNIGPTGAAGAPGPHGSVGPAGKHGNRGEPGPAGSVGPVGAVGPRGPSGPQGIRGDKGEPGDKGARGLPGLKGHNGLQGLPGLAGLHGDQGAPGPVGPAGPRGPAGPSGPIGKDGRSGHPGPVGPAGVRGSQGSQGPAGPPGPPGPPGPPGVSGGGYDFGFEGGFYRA

[4] = molecular target: elastin (human aorta) (human) (UniProt P15502)
Chain of UniProt P15502 (P15502 27-786): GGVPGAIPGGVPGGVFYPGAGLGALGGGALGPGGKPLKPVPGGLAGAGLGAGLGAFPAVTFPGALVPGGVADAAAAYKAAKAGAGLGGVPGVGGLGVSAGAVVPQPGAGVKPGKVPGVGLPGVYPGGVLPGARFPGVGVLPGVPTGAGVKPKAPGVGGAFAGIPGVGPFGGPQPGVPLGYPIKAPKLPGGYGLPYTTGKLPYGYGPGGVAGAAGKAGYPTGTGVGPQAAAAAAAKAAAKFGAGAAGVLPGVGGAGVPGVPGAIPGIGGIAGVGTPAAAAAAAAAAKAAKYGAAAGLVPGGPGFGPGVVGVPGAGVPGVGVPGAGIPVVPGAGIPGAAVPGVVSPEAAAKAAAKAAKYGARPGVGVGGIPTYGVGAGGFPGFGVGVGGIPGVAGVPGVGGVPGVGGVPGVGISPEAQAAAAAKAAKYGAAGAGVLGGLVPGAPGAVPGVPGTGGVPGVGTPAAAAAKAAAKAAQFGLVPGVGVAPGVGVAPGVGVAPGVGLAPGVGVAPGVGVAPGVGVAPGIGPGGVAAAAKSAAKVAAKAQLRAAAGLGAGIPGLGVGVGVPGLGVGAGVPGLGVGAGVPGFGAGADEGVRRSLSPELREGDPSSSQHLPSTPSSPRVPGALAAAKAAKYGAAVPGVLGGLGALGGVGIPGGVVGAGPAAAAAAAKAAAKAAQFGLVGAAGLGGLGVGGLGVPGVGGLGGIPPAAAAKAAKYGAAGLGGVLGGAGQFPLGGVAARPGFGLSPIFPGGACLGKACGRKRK

[5] = molecular target: fibrinogen (human plasma) (human) (UniProt P02671)
Chain of UniProt P02671 (P02671 36-866, chain 1 of 3): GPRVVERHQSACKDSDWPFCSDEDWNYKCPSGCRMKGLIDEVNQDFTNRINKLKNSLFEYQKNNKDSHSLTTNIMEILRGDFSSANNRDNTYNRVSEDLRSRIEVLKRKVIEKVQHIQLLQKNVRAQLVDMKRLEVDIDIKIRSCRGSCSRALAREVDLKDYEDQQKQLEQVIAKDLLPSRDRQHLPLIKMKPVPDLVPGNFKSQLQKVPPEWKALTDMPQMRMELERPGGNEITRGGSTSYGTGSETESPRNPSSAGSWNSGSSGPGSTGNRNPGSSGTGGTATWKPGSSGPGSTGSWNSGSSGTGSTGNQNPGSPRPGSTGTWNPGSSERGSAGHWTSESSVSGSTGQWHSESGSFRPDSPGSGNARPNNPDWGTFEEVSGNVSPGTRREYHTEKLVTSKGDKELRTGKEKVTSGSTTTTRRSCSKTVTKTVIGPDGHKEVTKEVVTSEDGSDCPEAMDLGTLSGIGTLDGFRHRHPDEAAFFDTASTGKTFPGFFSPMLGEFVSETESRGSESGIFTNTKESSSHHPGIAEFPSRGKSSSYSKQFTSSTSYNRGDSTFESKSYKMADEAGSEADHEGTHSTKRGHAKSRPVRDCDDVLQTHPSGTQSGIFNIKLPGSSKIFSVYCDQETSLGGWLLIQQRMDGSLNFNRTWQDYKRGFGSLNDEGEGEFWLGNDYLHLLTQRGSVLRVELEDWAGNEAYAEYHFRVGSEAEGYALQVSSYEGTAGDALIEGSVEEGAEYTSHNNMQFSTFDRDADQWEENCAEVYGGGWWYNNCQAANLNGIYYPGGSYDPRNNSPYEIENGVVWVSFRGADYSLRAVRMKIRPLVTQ
Chain of UniProt P02671 (P02675 45-491, chain 2 of 3, further chain): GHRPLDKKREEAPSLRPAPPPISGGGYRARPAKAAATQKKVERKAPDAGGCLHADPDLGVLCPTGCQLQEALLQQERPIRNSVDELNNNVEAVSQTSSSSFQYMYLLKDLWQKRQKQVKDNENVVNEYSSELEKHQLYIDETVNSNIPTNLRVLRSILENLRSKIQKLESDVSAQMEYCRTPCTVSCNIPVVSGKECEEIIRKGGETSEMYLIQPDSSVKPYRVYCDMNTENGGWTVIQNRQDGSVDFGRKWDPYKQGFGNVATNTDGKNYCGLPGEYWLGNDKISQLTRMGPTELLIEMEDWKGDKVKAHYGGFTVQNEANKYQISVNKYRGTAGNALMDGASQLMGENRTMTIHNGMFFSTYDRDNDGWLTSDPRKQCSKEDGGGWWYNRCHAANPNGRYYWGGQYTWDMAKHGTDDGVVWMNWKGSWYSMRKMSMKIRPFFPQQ
Chain of UniProt P02671 (P02679 27-453, chain 3 of 3, further chain): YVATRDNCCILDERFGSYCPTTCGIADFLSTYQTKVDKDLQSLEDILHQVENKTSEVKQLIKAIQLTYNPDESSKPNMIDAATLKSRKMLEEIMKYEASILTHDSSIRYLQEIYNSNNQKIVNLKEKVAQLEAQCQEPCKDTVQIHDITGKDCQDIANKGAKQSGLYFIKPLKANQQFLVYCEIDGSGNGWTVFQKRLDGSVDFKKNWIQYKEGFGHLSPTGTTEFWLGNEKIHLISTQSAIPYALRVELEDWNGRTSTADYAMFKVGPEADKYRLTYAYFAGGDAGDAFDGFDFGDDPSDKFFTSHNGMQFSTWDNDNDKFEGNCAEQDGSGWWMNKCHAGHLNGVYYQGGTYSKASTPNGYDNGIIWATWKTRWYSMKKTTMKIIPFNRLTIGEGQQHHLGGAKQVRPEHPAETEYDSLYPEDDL

[6] = molecular target: laminin (human placenta) (human)
[7] = molecular target: plasma fibronectin (human plasma) (human)
[8] = molecular target: plasminogen (human plasma) (human)
[9] = molecular target: vitronectin (human plasma) (human)

In the case of “recombinant LipL21 (LIC10011) (natural protein)”, the Kd [1] is reported as 147 nM, the Kd [2] is reported as 53.9 nM and the Kd [3] is reported as 6140 nM. It also gave a Kd [4] of 171 nM, a Kd [5] of 1120 nM and a Kd [6] of 287 nM. It also gave a Kd [7] of 2540 nM, a Kd [8] of 13.8 nM and a Kd [9] of 424 nM.
For “recombinant LipL41 (LIC12966) (natural protein)”, the Kd [1] was 1380 nM, the Kd [2] was 537 nM and the Kd [4] was 2720 nM. The Kd [6] was 312 nM.
